Test results from patent US20260116991A1 (HAINAN SIMCERE ZAIMING PHARMACEUTICAL, published 2026).
Blank lines part the entries; values can stand above or below the binder they belong to.

Tests used:
[1] = molecular target: T1, polypeptide GC3pep (human); test: ELISA, GC3pep coated, antibody 10 nM;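 further: antibody bound to the coated peptide for 2 h at 37 °C, detected through an HRP-conjugated secondary antibody with TMB colour development stopped by acid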
T1 construct: also called membrane proximal polypeptide GC3pep
T1 peptide: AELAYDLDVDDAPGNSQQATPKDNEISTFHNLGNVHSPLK
Protocol: (§1) The plate was sealed with a plastic film and incubated at 4° C. overnight, washed twice with PBS the next day, and a blocking solution [PBS+2% (w/w) BSA] was added for blocking at room temperature for 2 h. […] After incubation at 37° C. for 2 h, the plate was washed 3 times with PBS. A horseradish peroxidase (HRP)-labeled secondary antibody (purchased from Merck, Cat. No. AP113P) was added for incubation at 37° C. for 1 h, and the plate was washed 5 times with PBS. A TMB substrate was added at 50 μL/well for incubation at room temperature for 10 min, then a stop solution (1.0M HCl) was added at 50 μL/well.

[2] = molecular target: T1, polypeptide GC3pep; test: ELISA, GC3pep coated, antibody 0.1 nM;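 further: antibody allowed to bind the coated plate 2 h at 37 °C, then detected via HRP-conjugated secondary antibody and TMB development for 10 min, stopped with HCl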
Protocol: as §1

[3] = molecular target: T1, polypeptide GC3pep; test: ELISA, GC3pep coated, antibody 0.0001 nM
[4] = molecular target: T1, polypeptide GC3pep; test: ELISA, GC3pep coated, antibody 0.01 nM;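 further: bound antibody detected with an HRP-conjugated secondary antibody and TMB substrate, color reaction stopped with HCl before reading absorbance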
Protocol: as §1

[5] = molecular target: T1, polypeptide GC3pep; test: ELISA, GC3pep coated, antibody 100 nM;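 further: detection with an HRP-conjugated secondary antibody and TMB substrate, color reaction stopped with HCl before absorbance reading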
Protocol: as §1

[6] = molecular target: T1, polypeptide GC3pep; test: ELISA, GC3pep coated, antibody 0.001 nM
[7] = molecular target: T1, polypeptide GC3pep; test: ELISA, GC3pep coated, antibody 1 nM;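 further: bound antibody detected with an HRP-conjugated secondary antibody and TMB substrate, reaction stopped with HCl, after 2 h binding at 37 °C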
Protocol: as §1

OD450 nm [1]: 0.07 OD450 nm
OD450 nm [2]: 0.05 OD450 nm
OD450 nm [3]: 0.04 OD450 nm
OD450 nm [4]: 0.05 OD450 nm
OD450 nm [5]: 0.06 OD450 nm
OD450 nm [6]: 0.05 OD450 nm
OD450 nm [7]: 0.04 OD450 nm
B1: F1.110.24 (antibody, human IgG1, kappa, V domains shown)
VH: EVKLVESGGGLVQPGGSLKLSCAASGFTFSDFYMYWVRQTPEKRLEWVAFISNGGGSTYYPDTVKGRFTISRDNVKNTLYLQMSRLKSEDTAMYYCARPDTSWFAYWGQGSLVTVSA
VL: DIQMTQTTSSLSASLGDRVTISCRASQDIDNYLNWYQQKPDGTVKVLISYTSRLHSGVPSRFSGSGSGTDYSLTISNLEQEDIATYFCQQGNTLPWTFGGGTKLEIKR
notes: human-murine chimeric antibody

OD450 nm [1]: 0.05 OD450 nm
OD450 nm [2]: 0.05 OD450 nm
OD450 nm [3]: 0.05 OD450 nm
OD450 nm [4]: 0.05 OD450 nm
OD450 nm [5]: 0.06 OD450 nm
OD450 nm [6]: 0.05 OD450 nm
OD450 nm [7]: 0.05 OD450 nm
B2: F1.42.8 (antibody, human IgG1, kappa, V domains shown)
VH: HVQLQQPGAELVKPGASVKLSCKASGYTFTSYWMHWVRQRPGQGLEWIEMIHPNSGSTNYNEKFKSKATLTVDKSSSTAYMQLSSLTSEDSAVYYCARGNYNSSLYAMDYWGQGTSVTVSS
VL: DIQMTQTTSSLSASLGDRVTISCSASQGISNYLNWYQQKPDGTVKLLIYYASNLHSGVPSRFSGSGSGTAYSLTISNLEPEDIATYYCQQYSILPYTFGGGTKLEIKR
notes: as for B1

OD450 nm [1]: 0.05 OD450 nm
OD450 nm [2]: 0.04 OD450 nm
OD450 nm [3]: 0.05 OD450 nm
OD450 nm [4]: 0.04 OD450 nm
OD450 nm [5]: 0.06 OD450 nm
OD450 nm [6]: 0.04 OD450 nm
OD450 nm [7]: 0.04 OD450 nm
B3: F1.118.4 (antibody, human IgG1, kappa, V domains shown)
VH: QVQLQQSGAELAKPGASVKLSCKASGYSFTSYWIHWVKQRPGQGLEWIGYINPSSGYTKYNQKFKDKATLTADKSSSTAYMQLSSLTYEDSAVYYCARFGSSSFYFDYWGQGTTLTVSS
VL: DIVLTQSPASLAVSLGQRATISCRASQSVSSSSYSYMHWYQQKPGQPPKLLIKYASNLDSGVPARFSGSGSGTDFTLNIHPVEEEDTATYYCQHSWEIPAFGGGTKLEIKR
notes: as for B1

OD450 nm [1]: 0.05 OD450 nm
OD450 nm [2]: 0.05 OD450 nm
OD450 nm [3]: 0.05 OD450 nm
OD450 nm [4]: 0.05 OD450 nm
OD450 nm [5]: 0.06 OD450 nm
OD450 nm [6]: 0.05 OD450 nm
OD450 nm [7]: 0.05 OD450 nm
B4: F1.78.24 (antibody, human IgG1, kappa, V domains shown)
VH: QVQLQQSGAELVKPGASVKMSCKASGYTFTTYPIEWMKQNHGKSLEWIGNFHPYNDDTNYNVKFKGKATLTVEKSSSTVYLELSRLTSDDSALYYCARRREYYGSFDVWGTGTTVTVSS
VL: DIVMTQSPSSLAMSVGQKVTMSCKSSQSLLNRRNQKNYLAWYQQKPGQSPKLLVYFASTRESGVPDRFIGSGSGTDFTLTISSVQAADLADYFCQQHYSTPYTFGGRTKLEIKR
notes: as for B1

OD450 nm [1]: 0.05 OD450 nm
OD450 nm [2]: 0.05 OD450 nm
OD450 nm [3]: 0.06 OD450 nm
OD450 nm [4]: 0.04 OD450 nm
OD450 nm [5]: 0.11 OD450 nm
OD450 nm [6]: 0.05 OD450 nm
OD450 nm [7]: 0.04 OD450 nm
B5: F1.153.1 (antibody, human IgG1, kappa, V domains shown)
VH: QIQLVQSGPELKKPGETVKISCKASGYTFTTAGMQWVQKMPGKGFKWIGWINTHSGEPQYAEDFKGRFAFSLETSASTAYLQISNLKNEDTATYFCARSFYYHGSSFFYFDYWGQGTTLTVSS
VL: DIVMTQSQKFMSTTVGDRVSITCKASQNVGTAVAWYQQKPGQSPKLLIYSASNRYTGVPDRFTGSGSGADFTLTISNMQSEDLADYFCQQYSRYPLTFGAGTKLELKR
notes: as for B1

OD450 nm [1]: 0.05 OD450 nm
OD450 nm [2]: 0.05 OD450 nm
OD450 nm [3]: 0.04 OD450 nm
OD450 nm [4]: 0.05 OD450 nm
OD450 nm [5]: 0.09 OD450 nm
OD450 nm [6]: 0.05 OD450 nm
OD450 nm [7]: 0.05 OD450 nm
B6: F1.73.9 (antibody, human IgG1, kappa, V domains shown)
VH: QVQLKQSGAELVRPGASVKLSCKASGYTFTDYYINWVKQRPGQGLEWIARIYPGSGNTYYNEKFKGKATLTAEKSSSTAYMQFSSLTSEDSAVYFCACSTYYTMDYWGQGTSVTVSS
VL: QIVLTQSPAIMSASLGERVTMTCTASSGVSSSYLHWYQQKPGSSPKLWIYTTSNLASGVPARFSGSGSGTSYSLTISSMEAEDAATYYCHQYHRSPYTFGGGTKLEIKR
notes: as for B1

OD450 nm [1]: 0.06 OD450 nm
OD450 nm [2]: 0.04 OD450 nm
OD450 nm [3]: 0.05 OD450 nm
OD450 nm [4]: 0.04 OD450 nm
OD450 nm [5]: 0.08 OD450 nm
OD450 nm [6]: 0.04 OD450 nm
OD450 nm [7]: 0.04 OD450 nm
B7: F1.120.16 (antibody, human IgG1, kappa, V domains shown)
VH: EFQLQQSGPELVKPGASVKISCKASGYSFTDYNMNWVKQSNGKSLEWIGLIHPKFSVTSYNRKFKGKATLTVDQSSSTAYMQLNSLTSEDSAVYYCARWAGDYFDYWGQGTTLTVSS
VL: DIVLTQSPATLSVTPGDSVSLSCRASQSISNNLHWYQQKSHESPRLLIKYASQSISGIPSRFSGSGSGTDFTLTINSVETEDFGMYFCQQSNSWPQTFGGGTKLEIKR
notes: as for B1

OD450 nm [1]: 0.05 OD450 nm
OD450 nm [2]: 0.05 OD450 nm
OD450 nm [3]: 0.05 OD450 nm
OD450 nm [4]: 0.04 OD450 nm
OD450 nm [5]: 0.1 OD450 nm
OD450 nm [6]: 0.05 OD450 nm
OD450 nm [7]: 0.08 OD450 nm
B8: F1.115.8 (antibody, human IgG1, kappa, V domains shown)
VH: EVQLQQSGPELVKPGASVKMSCKASGYTFTEYYMHWVKQSHGKSLEWIGYIYPNNGGNGYNQKFKGKATLTVDKSSSTAYMGLRSLTSEDSAVYYCVRGYYSNWYFDVWGTGTTVTVSS
VL: DVLMTQTPLSLPVSLGDQASISCRSSQSIVHSNGKTYLEWYLQKPGQSPKLLIYKVSNRFSGVPDRFSGSGSGTDFTLKISRVEAEDLGVYYCFQGSHVPFTFGSGTKLEIKR
notes: as for B1
